Source: patent US20230227540A1 (ABL BIO, published 2023)
Changes are numbered by the printed parent chain. Values joined by “and” are separate entries in the source; they are usually repeats but may differ in a detail not shown here. Identical values can stand only once.

B1: 10F10 (antibody, IgG2a, V domains shown)
VH: EVQLQESGPGLVKPSQSLSLTCSVTGYSITGGFYWNWIRQFPGNNLEWMGYINYDGSSDYSPSLKNRISITRDTSKNQFFLNLNSVTTEDTATYYCVRGDYDWGQGTTLTVSS
VL: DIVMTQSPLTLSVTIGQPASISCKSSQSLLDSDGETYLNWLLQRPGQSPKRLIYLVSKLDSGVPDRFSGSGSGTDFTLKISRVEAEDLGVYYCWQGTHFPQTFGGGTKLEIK
notes: Only the variable domains are tied to the clone as tested; also called mouse monoclonal anti α-Syn antibody 10F10
B2: 11F11 (antibody, IgG2b, V domains shown)
VH: EVQLQESGGGLVQPGGSLRLSCATSGFTFSDFYMEWVRQPPGKRLEWIAASRNKANDYTTEYSASVKGRFIVSRDTSQSILYLQMNALRAEDTAIYYCARDAHGKPFAYWGQGTLVTVSA
VL: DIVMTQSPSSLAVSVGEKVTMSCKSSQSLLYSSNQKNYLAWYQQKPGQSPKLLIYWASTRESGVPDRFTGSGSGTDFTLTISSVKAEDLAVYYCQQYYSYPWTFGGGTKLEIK
notes: Only the variable domains are tied to the clone as tested; also called mouse monoclonal anti α-Syn antibody 11F11
B3: 9B11 (antibody, V domains shown)
VH: EVQLQESGGGLVQPKGSLKLSCAASGFTFNTYAMNWVRQAPGKGLEWVARIRSKSNNYATYYADSVKDRFTISRDDSQSMLYLQMNNLKTEDTAMYYCVRQDFDYWGQGTTLTVSS
VL: DIVMTQSPLSLPVSLGDQASISCRSSQSLVHSNGNTYLHWYLQKPGQSPKLLIYKVSNRFSGVPDRFSGSGSGTDFTLKISRVEAEDLGVYFCSQSTHVPLTFGAGTKLEQK
notes: Antibody purified from a mouse hybridoma, raised against the full-length α-Syn aggregate; Only the variable domains are tied to the clone as tested; also called mouse monoclonal anti α-Syn antibody 9B11
B4: 3A9 (antibody, V domains shown)
VH: EVQLQESGGGLVKPGGSLKLSCAASGFTFSSYAMSWVRQTPEKRLEWVATISNGGGYTYYPDSVKGRFTISRDNAKNTLYLQMSSLRSEDTAMYYCARHITTVRPTKYFDYWGQGTTLTVSS
VL: DIVMTQSPKFMSTSVGDRVSITCKASQNVGTTVAWYQQKPGQSPKLLIYSASNRYTGVPDRFTGSGSGTDFTLTISNMQSEDLADYFCQQYSNYPLTFGAGTKLELR
notes: Only the variable domains are tied to the clone as tested; also called mouse monoclonal anti α-Syn antibody 3A9
B5: 1E4 (antibody, V domains shown)
VH: EVQLQESGAELVRPGTSVKVSCKASGYAFTNYLIEWVKQRPGQGLEWIGVINPGSGGTNYNEKFKGKATLTADKSSSTAYMQLSSLTSDDSAVYFCASGNYDTYWGQGTLVTVSA
VL: B3 VL with L101R, A105G, Q111I
notes: Antibody purified from a mouse hybridoma, raised against the full-length (140 residues) α-Syn aggregate; Only the variable domains are tied to the clone as tested; also called mouse monoclonal anti α-Syn antibody 1E4
B6: AC8 (scFv, V domains shown)
VH: EVQLLESGGGLVQPGGSLRLSCAASGFTFSDYSMSWVRQAPGKGLEWVSGISSGGSSKYYADSVKGRFTISRDNSKNTLYLQMNSLRAEDTAVYYCAKIFHNFDYWGQGTLVTVSS
VL: QSVLTQPPSASGTPGQRVTISCSGSSSNIGSNNVYWYQQLPGTAPKLLIYYDSQRPSGVPDRFSGSKSGTSASLAISGLRSEDEADYYCASWDASLSAYVFGGGTKLTVLG
notes: Clone from a human scFv phage library; The screen used soluble HA-tagged scFv; The dot blot was detected with anti-human Fc-HRP, so an Fc-bearing format may have been used there; also called ScFV anti α-Syn antibody AC8
B7: AE8 (scFv, V domains shown)
VH: EVQLLESGGGLVQPGGSLRLSCAASGFTFSNYAMSWVRQAPGKGLEWVSAISSGGGNIYYADSVKGRFTISRDNSKNTLYLQMNSLRAEDTAVYYCARRPLYFDYWGQGTLVTVSS
VL: B6 VL with S31N, N33S, Y35N, Y51A, D52N, S53N, Q54N, A90G, S97N, A98G
notes: Clone from a human scFv phage library; also called ScFV anti α-Syn antibody AE8
B8: AA9 (scFv, V domains shown)
VH: EVQLLESGGGLVQPGGSLRLSCAASGFTFSSYSMSWVRQAPGKGLEWVSAIYPGSSNKYYADSVKGRFTISRDNSKNTLYLQMNSLRAEDTAVYYCARHAATFDYWGQGTLVTVSS
VL: B6 VL with N33Y, Y35S, Y51G, S53N, Q54K, A90G, S91A, A94D, A98G
notes: Clone from a human scFv phage library; also called ScFV anti α-Syn antibody AA9
B9: DA9 (scFv, V domains shown)
VH: EVQLLESGGGLVQPGGSLRLSCAASGFTFSNYAMSWVRQAPGKGLEWVSVISPSDSNTYYADSVKGRFTISRDNSKNTLYLQMNSLRAEDTAVYYCARVTLSCRASRCSYSNGMDVWGQGTLVTVSS
VL: B6 VL with S26P, S31N, N33S, Y35S, Y51A, D52N, Q54H, A90G, S97N, A98G
notes: Clone from a human scFv phage library; also called ScFV anti α-Syn antibody DA9
B10: DG11 (scFv, V domains shown)
VH: EVQLLESGGGLVQPGGSLRLSCAASGFTFSDYAMSWVRQAPGKGLEWVSVISPGSGSKYYADSVKGRFTISRDNSKNTLYLQMNSLRAEDTAVYYCAKVTISCARMRCSYADGMDVWGQGTLVTVSS
VL: B6 VL with S23T, N33S, Y35S, Y51A, D52N, Q54N, S91A
notes: Clone from a human scFv phage library; also called ScFV anti α-Syn antibody DG11
B11: AD2 (scFv, V domains shown)
VH: B6 VH with D31N, S33A, G50A, S53H, G54S, K98R, I99S, F100G, H101N
VL: B6 VL with S23T, S31N, N33S, Y35S, Y51S, S53N, Q54N, A90G, A98G
notes: Clone from a human scFv phage library; also called ScFV anti α-Syn antibody AD2
B12: DG8 (scFv, V domains shown)
VH: B10 VH with Y32H, P53H, S55N, K98R, T100A, I101S, S102R, A104R, M106G, A111S
VL: B6 VL with N33S, Y35S, Y51A, D52N, S53N, Q54N, A90G, S91A, A94S
notes: Clone from a human scFv phage library; also called ScFV anti α-Syn antibody DG8
B13: AD7 (scFv, V domains shown)
VH: B7 VH with N31G, S53P, G54N, I58K, L101V
VL: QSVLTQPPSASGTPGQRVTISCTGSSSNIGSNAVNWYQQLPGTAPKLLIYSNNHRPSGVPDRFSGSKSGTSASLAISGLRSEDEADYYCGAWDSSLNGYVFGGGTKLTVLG
notes: Clone from a human scFv phage library; also called ScFV anti α-Syn antibody AD7
B14: DG5 (scFv, V domains shown)
VH: B9 VH with S54G, D55S, S56G, L101I, S102A, R104P, A105T, S106K
VL: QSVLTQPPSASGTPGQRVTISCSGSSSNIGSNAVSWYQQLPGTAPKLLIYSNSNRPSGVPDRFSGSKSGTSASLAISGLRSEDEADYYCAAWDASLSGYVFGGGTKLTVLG
notes: Clone from a human scFv phage library; also called ScFV anti α-Syn antibody DG5

Biological target: α-syn monomer (human, UniProt P37840 1-140)
Experiment: ELISA (Example 2-2), column Monomers

| Binder | EC50 |
| --- | --- |
| B1 | 0.0233 µg/mL and 0.155 nM |

Biological target: T1, α-syn aggregate (human, UniProt P37840 1-140)
Experiment: BIAcore (SPR), 1:1 binding model (Example 2-3), column Fibrils
Procedure: Quantitative analysis of the binding of alpha-synuclein antibody prepared in Example 1 to monomer and aggregate antigen was performed using BIAcore analysis.
The used instrument was T200 (GE Healthcare, S / N: 1565888). Protein A is used as a chip (GE Healthcare, Cat. 29-1275-56). 10 mM Glycine-HCl pH 1.5 (GE Healthcare, Cat. BR-1003-54) was regeneration buffer. The running buffer, analyte dilution, and the sample dilution buffer were HBS-EP. The α-syn antibodies (3A9, 9B11 and 11F11) prepared in Example 1 were diluted with 1 x HBS-EP (GE Healthcare, Cat. BR-1006-69), and alpha-synuclein monomer (1 mg/ml) and fibril protein (3 mg / ml) were serially diluted in duplicate and analyzed at 6 concentrations (0, 0.39, 1.56, 6.25, 25, 100 nM) including 0 nM in total. For the capture, the monomer was for RU of 800 (theoretical), and a fibril was for RU of 100 (theoretical). The capture phase was performed at contact time of 60 seconds, a flow rate of 30 µl / min, and a stabilization period of 180 seconds. The association phase was performed at the association time of 120 seconds and the flow rate was 30 µl/min. The dissociation phase was performed at the dissociation time of 360 seconds and the flow rate of 30 µl/min. The regeneration phase was performed twice time at the regeneration time of 240 seconds (primary) and 60 seconds (secondary) and a flow rate of 30 µl/min. The fitting was carried out suing 1: 1 binding model, and the evaluation software was BIACore T200 Evaluation software (GE healthcare).

| Binder | Kd [nM] |
| --- | --- |
| B2 | 2.87 |
| B3 | 0.904 |
| B4 | 1.32 |

Biological target: T1, α-syn aggregate
Experiment: ELISA (Example 2-2), column Fibrils
Procedure: ELISA analysis was performed to quantitatively analyze the binding affinity of the antibody of the present invention to the antigen. For this, alpha-synuclein antibody of the present invention was coated on a 96-well plate at a concentration of 1 mg/ml and treated with alpha, synuclein fibril aggregates at 10, 100, 1000 and 10,000 ng/ml. After washing with PBS, streptavidin conjugated with HRP and secondary antibody conjugate with biotin was treated and then reacted with TMB as a substrate. The absorbance was measured.

| Binder | EC50 |
| --- | --- |
| B2 | 0.327 µg/mL and 2.18 nM |
| B5 | 0.0245 µg/mL and 0.163 nM |
| B3 | 0.185 µg/mL and 1.23 nM |
| B1 | 0.087 nM and 0.0131 µg/mL |
| B4 | 0.319 µg/mL and 2.13 nM |

Biological target: T1, α-syn aggregate
Experiment: Octet (BLI), α-syn aggregate (Example 2-6)
Procedure: Specifically, the running buffer was 1 x KB buffer (cat. 18-1092) or 1 x PBS buffer at 1000 rpm, and the immobilization buffer was sodium acetate, pH 5 (10 mM, Cat 18-1068. α-syn monomers was immobilized the α-syn antigen, and fibrils was immobilized the test antibody. The target concentrations were 20 µg/ml for the monomer and 0.4 µg/ml for the fibril. The kinetics concentration was diluted sequentially two times from 50 nM for monomers and from 100 nM for fibrils, to give 7 points in total, respectively. Association/dissociation time was 5 min / 20 min for monomer and 5 min / 25 min for fibril. Biosensor was ARG2 and fitting was performed using 1: 1 fitting model.
Octet analysis was performed as described in Examples 2-4 using the ScFV anti-Syn antibodies selected in Example 1-2.

| Binder | Kd [nM] |
| --- | --- |
| B2 | 0.16 |
| B5 | 0.18 |
| B3 | 0.018 |
| B6 | 0.24 |
| B7 | 0.39 |
| B8 | 0.88 |
| B9 | 4.31 |
| B10 | 2.66 |
| B11 | 1.67 |
| B12 | 3.8 |
| B13 | 0.17 |
| B14 | 1.26 |
| B1 | 0.81 |
| B4 | 0.13 |
